Measured values: patent US20220396632A1 (VERSEAU THERAPEUTICS, published 2022)
No end group written: not given here. *: point of attachment. Biotin = O=C1N[C@H]2[C@H](CS[C@H]2CCCCC(=O)*)N1

Legend:
[1] = target: T1, PSGL-1 endogenously expressed on HL-60 cells (UniProt Q14242 42-412); test: flow cytometry on HL-60 cells; against parent 19L04
T1 construct: whole, on cells
T1 sequence (looked up): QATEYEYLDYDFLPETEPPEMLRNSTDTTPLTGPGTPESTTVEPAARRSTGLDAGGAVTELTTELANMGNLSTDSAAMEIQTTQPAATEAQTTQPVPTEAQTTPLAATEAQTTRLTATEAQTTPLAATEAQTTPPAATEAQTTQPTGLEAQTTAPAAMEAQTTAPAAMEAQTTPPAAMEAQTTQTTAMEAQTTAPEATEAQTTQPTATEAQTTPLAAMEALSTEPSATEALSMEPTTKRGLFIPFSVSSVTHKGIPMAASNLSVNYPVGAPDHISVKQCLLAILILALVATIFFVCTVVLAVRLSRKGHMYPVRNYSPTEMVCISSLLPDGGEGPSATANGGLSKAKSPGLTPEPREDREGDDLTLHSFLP
Experimental: (§1) A typical flow cytometry assay was performed by resuspending HL-60 cells in FACS buffer (5% FBS and 0.05% Sodium Azide in PBS, pH 7.2) on ice, pelleting cells by centrifugation at 500×g for 3 min, washing cells with FACS buffer, and then blocking Fc receptors on the cells with Fc block (human TruStain FcX™, BioLegend Cat. #422302) on ice for 10 min. After washing, 50,000 cells/50 ul in FACS buffer was added to each well of a 96-well round bottomed plate (Costar, Cat. #3797), and 50 ul of serially diluted (0.06 nM-1.0 uM) test or isotype control antibody was added into duplicate wells. The plate was covered and incubated on ice for 1 h. After washing, Phycoerythrin (PE) conjugated anti-human IgG secondary antibody (Abcam; Cat. #ab99825) was added to each well and the plate incubated in the dark on ice for 30 min. After washing, the cells were fixed (1% paraformaldhyde).

[2] = target: T2, Biotin PSGL-1(42-62) L54A peptide (C-terminal Lys-biotin); test: alanine-scan ELISA, streptavidin-immobilized biotin peptide
T2 peptide: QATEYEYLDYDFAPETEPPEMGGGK

[3] = target: T1, PSGL-1 endogenously expressed on HL-60 …; test: flow cytometry on HL-60 cells; against parent 20I15
Experimental: as §1

PSGL-1(90-110) = target: T3, PSGL-1(90-110) (N-terminal acetyl; C-terminal Lys-biotin); test: ELISA, streptavidin-immobilized biotin peptide [cont.]
T3 construct: also called Biotin PSGL-1(90-110) peptide
T3 peptide: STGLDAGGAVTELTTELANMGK
Experimental: (§2) A typical ELISA experiment involved binding of a single concentration or serially diluted mAb in assay buffer (3% BSA in PBS containing 0.05% Tween®20, pH 7.4) onto BSA blocked high binding microtiter plate half-wells (Corning Cat. #3690), which contained PSGL-1 protein or streptavidin-immobilized biotin peptide. After incubation for 45 min. at 37° C., the plate was washed 3 times with wash buffer (PBS containing 0.05% Tween®20, pH 7.4), and an appropriate HRP-conjugated secondary antibody added (25 ul/well) (HRP goat anti-mouse or anti-human IgG). After 45 min. incubation at 37° C., the plate was washed and antibody bound to plate-immobilized target was determined at A450 nm using HRP substrate (3,3′5,5′-tetramethylbenzidine (TMB)). For each antibody, duplicate values were averaged and assay background subtracted.

PSGL-1(305-320) = target: T4, PSGL-1(305-320); test: as above
T4 construct: also called Biotin PSGL-1(305-320) peptide
T4 peptide: Ac-VNYPVGAPDHISVKQSK(Biotin)
Experimental: as §2

205-230 = target: T5, 205-230 (N-terminal acetyl; C-terminal Lys-biotin); test: as above
T5 peptide: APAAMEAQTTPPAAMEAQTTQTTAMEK
Experimental: as §2

165-190 = target: T6, 165-190 (N-terminal acetyl; C-terminal Lys-biotin); test: as above
T6 construct: also called Biotin PSGL-1(165-190) peptide
T6 peptide: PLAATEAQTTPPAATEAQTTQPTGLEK
Experimental: as §2

42-80 = target: T7, 42-80 (C-terminal Lys-biotin); test: as above
T7 construct: also called Biotin PSGL-1(42-80) peptide
T7 peptide: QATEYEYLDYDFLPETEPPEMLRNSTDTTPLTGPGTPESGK
Experimental: as §2

145-170 = target: T8, 145-170 (N-terminal acetyl; C-terminal Lys-biotin); test: as above
T8 peptide: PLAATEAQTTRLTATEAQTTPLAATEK
Experimental: as §2

225-250 = target: T9, 225-250 (N-terminal acetyl; C-terminal Lys-biotin); test: as above
T9 peptide: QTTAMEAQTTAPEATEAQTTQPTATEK
Experimental: as §2

[4] = target: T10, Biotin PSGL-1(42-62) peptide, unmodified (human, C-terminal Lys-biotin); test: as above
T10 construct: Residues 42-62 followed by GGGK-biotin; also called WT; wild-type
T10 peptide: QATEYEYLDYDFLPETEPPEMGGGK
Experimental: as §2

75-95 = target: T11, 75-95 (N-terminal acetyl; C-terminal Lys-biotin); test: as above
T11 construct: also called Biotin PSGL-1(75-95) peptide
T11 peptide: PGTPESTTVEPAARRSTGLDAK
Experimental: as §2

63-80 = target: T12, 63-80 (N-terminal acetyl; C-terminal Lys-biotin); test: as above
T12 construct: also called Biotin PSGL-1(63-80) peptide
T12 peptide: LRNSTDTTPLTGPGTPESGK
Experimental: as §2

[5] = target: T13, Biotin PSGL-1(56-70) peptide (human); test: as above
T13 peptide: Ac-ETEPPEMLRNSTDTTGK(Biotin)
Experimental: as §2

245-265 = target: T14, 245-265 (N-terminal acetyl; C-terminal Lys-biotin); test: as above
T14 peptide: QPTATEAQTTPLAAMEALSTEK
Experimental: as §2

[6] = target: T15, Biotin PSGL-1(42-62) F53A peptide (C-terminal Lys-biotin); test: alanine-scan ELISA, streptavidin-immobilized biotin peptide
T15 peptide: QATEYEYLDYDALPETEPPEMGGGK

[7] = target: T16, Biotin PSGL-1(42-62) D50A peptide (C-terminal Lys-biotin); test: as above
T16 peptide: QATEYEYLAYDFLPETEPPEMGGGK

B1: 19L04 (antibody, IgG4, V domains shown)
VH: QIQLVQSGPELKKPGETVKISCKASGYTFTTYGMSWVKQAPGKGLKWMGWINTYSGVPTYADDFKGRFAFSLETSASTAYLQINNLKIEDTATYFCARHYYGSHYFDYWGQGTTLTVSS
VL: DIMMTQSPSSLAMSVGQKVTLRCKSSQSLLNSSNQKNYLAWYQQKPGQSPKLLVYFASTRESGVPVRFIGSGSGTDFTLTISSMQAEDLADYFCQQHYFSPLTFGAGTKLELK
notes: From mouse immunisation; only variable domains given
HL-60 EC50 (normalized) [1]: 1 fold

B2: 18F02 (antibody, V domains shown)
VH: QVQLQQPGAELVKPGASVKLSCKASGYTFTSYWMHWVKQRPGQGLEWIGMIHPNSGRTNYNEKFKSKATLTVDKSSSTAYMQLSSLTSEDSAVYYCARSDYWGQGTTLTVSS
VL: DIVMTQAAFSNPVTLGTSASISCRSSKSLLHSDGITYLYWFLQRPGQSPQLLIYRMSNLASGVPDRFSGSGSGTDFTLRISRVEAEDVGVYYCAQMLEFPRTFGGGTKLEIK
notes: as for B1
binding result [2]: binds

B3: 20I15 (antibody, V domains shown)
VH: EVKLVESGGGLVQPGGSLSLSCAASGFTFTDYYMSWVRQPPGKALEWLGFIRNKANGYTTEYSASVKGRFTISRDNSQSILYLQMNALRAEDSATYYCARTYLRRGYFDVWGTGTTVTVSS
VL: DIVLTQSPASLAVSLGQRATISCRASKSVSTSGYSYMHWFQQKPGQPPKLLIYLASNLESGVPARFSGSGSGTDFTLNIHPVEEEDAATYYCQHSRELPLTFGAGTKLELK
notes: From mouse immunisation; only variable domains given; also called 20115
HL-60 EC50 (normalized) [3]: 1 fold

B4: 18K07 (antibody, V domains shown)
VH: QIQLVQSGPELKKPGETVKISCEASGYTFTTYGMNWVKQAPGKGLKWMGWINTYSGVPTYADDFQGRFAFSVETSATTAYLQINNLKNEDAATYFCARSDDTYYGFAYWGQGTLVTVSA
VL: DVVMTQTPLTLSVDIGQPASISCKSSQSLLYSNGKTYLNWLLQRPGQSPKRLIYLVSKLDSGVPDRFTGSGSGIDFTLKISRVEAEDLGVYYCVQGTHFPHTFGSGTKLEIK
notes: as for B1
binding result (PSGL-1(90-110)): no binding (tested: 10 nM) | binding result (PSGL-1(305-320)): no binding (tested: 10 nM) | binding result (205-230): no binding (tested: 10 nM) | binding result (165-190): no binding (tested: 10 nM) | binding result (42-80): no binding (tested: 10 nM) | binding result (145-170): no binding (tested: 10 nM) | binding result (225-250): no binding (tested: 10 nM) | binding result [4]: no binding (tested: 10 nM) | binding result (75-95): no binding (tested: 10 nM) | binding result (63-80): no binding (tested: 10 nM) | binding result [5]: no binding (tested: 10 nM) | binding result (245-265): no binding (tested: 10 nM)

B5: 43B6 (antibody, V domains shown)
VH: EVQLQQSGPDLVKPGALVKISCKASGYSFTAYYIHWVKQSHGKSLEWIGRVNPNTGGTSYNPKFKGKAILNVDKSSSTAYMELRSLTSEDSAVYYCARSGSPYYRYDDWGQGTTLTVSS
VL: ENVLTQSPAIMSASPGEKVTMTCRASSTVNSTYLHWFQQKSGASPKLWIYGSSNLASGVPARFSGSGSGTSYSLTISSVEAEDAATYYCQQYSGYPLTFGAGTTLELK
notes: Control anti-PSGL-1 mAb, recombinant; only variable domains given; also called 43B3
binding result [6]: binds | binding result [7]: binds
